Data: publication PMC4036194

Key:
[1] = biological target: Full-length C24A β3 mutant with a carboxyl-terminal Myc epitope tag; assay: atomic force microscopy (AFM) imaging; Myc-tagged β3 (wild type or C24A) immunoisolated from tsA 201 detergent extract, diluted to ~40 pM, adsorbed to mica, imaged in air in tapping mode; molecular volumes of particles
[2] = biological target: mEos2-labeled acid-sensing ion channel hASIC (UniProt P78348); assay: fluorescence photoactivated localization microscopy (FPALM) with pair correlation analysis; mEos2 fusions on the plasma membrane of fixed, transfected HEK293 cells; TIRF-PALM; 30 regions of 1 μm^2 on five cells; proteins per cluster

mEos2-labeled acid-sensing ion channel hASIC (from UniProt P78348 1-528) (natural protein), sequence (P78348 whole entry): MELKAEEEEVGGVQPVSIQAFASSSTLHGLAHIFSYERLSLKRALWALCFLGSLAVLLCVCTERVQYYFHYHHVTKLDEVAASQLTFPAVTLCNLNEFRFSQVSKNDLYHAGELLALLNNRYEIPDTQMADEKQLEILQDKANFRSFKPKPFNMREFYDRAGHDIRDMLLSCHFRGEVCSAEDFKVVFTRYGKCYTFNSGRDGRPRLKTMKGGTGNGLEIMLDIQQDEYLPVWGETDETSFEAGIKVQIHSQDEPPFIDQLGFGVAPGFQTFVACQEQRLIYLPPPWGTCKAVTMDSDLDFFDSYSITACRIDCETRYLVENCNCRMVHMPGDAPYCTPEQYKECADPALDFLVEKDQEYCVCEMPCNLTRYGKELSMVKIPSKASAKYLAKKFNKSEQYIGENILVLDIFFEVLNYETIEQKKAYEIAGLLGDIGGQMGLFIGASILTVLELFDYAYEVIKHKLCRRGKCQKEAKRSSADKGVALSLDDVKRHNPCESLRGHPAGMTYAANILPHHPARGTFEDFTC

Row | stoichiometry N [1] | stoichiometry N [2] | Substance
1 | 2 | – | Full-length C24A β3 mutant with a carboxyl-terminal Myc epitope tag (natural protein)
2 | – | 3 | mEos2-labeled acid-sensing ion channel hASIC (from UniProt P78348 1-528) (natural protein)
